{"source": "paper PMC2965261", "about": "(Nucleic Acids Research, 2010)", "binders": {"B1": {"name": "Candida albicans Ino2 (natural protein)", "chain": "MSSTVTQTMNNNPTEKVTFTASNSQADFDLLDIFSNDMDFEQAYDMYNNLQEKNAMGSFEQLQKVQALNQQYVSNLQPPSSAQFPDQFAYERAQILNGEYNKQSGLMNDATNKNYSFNDDTFDQFFTNTESNALEKFLDNLANPVASVNPLQFYNNTRTSVPDEDVDLSFELHTMKVPQQFKPRSQSLEHNPPLQQKVRFTEEEHAALKQELTEAFAHPCTQLPSPSTTEYKPKPTTPKVVKQFVTPPNSGDESRKRNSDIESDESEEETTPTTKKRKRTSSKPLLSVEQKRLNHSHSEQKRRQLCKFAYQRCLELIIDLDAFNKLPELNESERKSKRARVNKDGLPNLSKHNALIRISNEMILIKSMNDSLKKLIENR"}}, "biological_target": "T1, Candida albicans Ino4 (C. albicans, UniProt A0A1D8PH18 1-130)", "T1 sequence": "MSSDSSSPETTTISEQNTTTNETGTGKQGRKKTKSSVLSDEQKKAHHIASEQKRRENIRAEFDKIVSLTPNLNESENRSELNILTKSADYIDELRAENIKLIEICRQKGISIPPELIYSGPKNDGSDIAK", "test": "two-hybrid"}
{"binder": "B1", "values": [{"measurement": "galactosidase activity, fold of the background activity", "value": 2.5, "unit": "fold"}]}
